{
  "source": "patent US20090149389A1",
  "about": "(PURDUE RESEARCH FOUNDATION, published 2009)",
  "assay_in_all_cases": "cell-based or functional assay",
  "key": {"Ret (h)": {"biological_target": "T1, Ret (h) (human (h), UniProt P07949 658-1114, limits assumed)", "T1 sequence (looked up)": "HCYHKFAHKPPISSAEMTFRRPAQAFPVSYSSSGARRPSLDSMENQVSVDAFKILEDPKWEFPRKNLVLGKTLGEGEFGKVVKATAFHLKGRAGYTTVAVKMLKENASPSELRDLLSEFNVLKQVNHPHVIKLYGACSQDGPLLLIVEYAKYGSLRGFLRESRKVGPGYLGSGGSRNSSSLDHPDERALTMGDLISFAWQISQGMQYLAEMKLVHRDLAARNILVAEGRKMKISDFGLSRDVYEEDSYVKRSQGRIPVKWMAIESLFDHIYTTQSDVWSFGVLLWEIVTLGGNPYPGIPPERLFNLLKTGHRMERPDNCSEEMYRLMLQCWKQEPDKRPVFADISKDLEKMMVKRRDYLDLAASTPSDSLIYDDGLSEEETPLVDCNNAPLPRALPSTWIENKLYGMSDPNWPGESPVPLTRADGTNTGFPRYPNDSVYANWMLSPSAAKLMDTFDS"}, "MSK2 (h)": {"biological_target": "MSK2 (h) (human (h), UniProt O75676 1-772, limits assumed)", "sequence (O75676 whole entry)": "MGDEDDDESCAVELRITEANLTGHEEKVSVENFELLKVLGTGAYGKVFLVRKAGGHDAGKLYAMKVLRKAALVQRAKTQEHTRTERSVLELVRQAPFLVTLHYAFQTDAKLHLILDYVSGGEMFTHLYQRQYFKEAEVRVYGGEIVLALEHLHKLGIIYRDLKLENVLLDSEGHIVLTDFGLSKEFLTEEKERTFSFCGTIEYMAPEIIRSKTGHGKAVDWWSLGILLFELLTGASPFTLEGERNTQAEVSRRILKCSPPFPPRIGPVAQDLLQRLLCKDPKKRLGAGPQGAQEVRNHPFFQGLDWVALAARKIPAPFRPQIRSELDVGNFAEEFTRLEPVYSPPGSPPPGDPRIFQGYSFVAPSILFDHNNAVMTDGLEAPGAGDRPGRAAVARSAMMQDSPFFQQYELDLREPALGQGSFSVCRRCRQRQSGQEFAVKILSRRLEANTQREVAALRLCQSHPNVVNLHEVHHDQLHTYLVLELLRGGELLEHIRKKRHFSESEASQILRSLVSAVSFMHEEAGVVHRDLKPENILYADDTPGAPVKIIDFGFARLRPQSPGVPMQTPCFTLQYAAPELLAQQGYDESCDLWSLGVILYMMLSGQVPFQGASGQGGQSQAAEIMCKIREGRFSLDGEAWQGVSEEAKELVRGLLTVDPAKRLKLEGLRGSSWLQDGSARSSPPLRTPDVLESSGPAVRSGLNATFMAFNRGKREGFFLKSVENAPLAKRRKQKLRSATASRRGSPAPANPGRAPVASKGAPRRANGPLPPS"}, "L1MK1 (h)": {"biological_target": "L1MK1 (h) (human (h), UniProt P53667 285-638, limits assumed)", "sequence (P53667 285-638 limits assumed)": "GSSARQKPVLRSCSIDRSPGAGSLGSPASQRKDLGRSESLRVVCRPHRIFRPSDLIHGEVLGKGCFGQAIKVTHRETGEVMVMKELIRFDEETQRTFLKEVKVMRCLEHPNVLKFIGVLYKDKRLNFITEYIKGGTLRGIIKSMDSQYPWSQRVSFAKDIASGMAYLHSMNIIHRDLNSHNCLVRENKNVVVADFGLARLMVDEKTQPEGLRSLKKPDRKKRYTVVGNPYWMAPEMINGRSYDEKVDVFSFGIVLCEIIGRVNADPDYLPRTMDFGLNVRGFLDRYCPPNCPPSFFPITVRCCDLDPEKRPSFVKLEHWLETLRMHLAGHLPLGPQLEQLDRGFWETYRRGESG"}, "Lck (h)": {"biological_target": "Lck (h) (human (h), UniProt P06239 1-509)", "sequence (P06239 whole entry)": "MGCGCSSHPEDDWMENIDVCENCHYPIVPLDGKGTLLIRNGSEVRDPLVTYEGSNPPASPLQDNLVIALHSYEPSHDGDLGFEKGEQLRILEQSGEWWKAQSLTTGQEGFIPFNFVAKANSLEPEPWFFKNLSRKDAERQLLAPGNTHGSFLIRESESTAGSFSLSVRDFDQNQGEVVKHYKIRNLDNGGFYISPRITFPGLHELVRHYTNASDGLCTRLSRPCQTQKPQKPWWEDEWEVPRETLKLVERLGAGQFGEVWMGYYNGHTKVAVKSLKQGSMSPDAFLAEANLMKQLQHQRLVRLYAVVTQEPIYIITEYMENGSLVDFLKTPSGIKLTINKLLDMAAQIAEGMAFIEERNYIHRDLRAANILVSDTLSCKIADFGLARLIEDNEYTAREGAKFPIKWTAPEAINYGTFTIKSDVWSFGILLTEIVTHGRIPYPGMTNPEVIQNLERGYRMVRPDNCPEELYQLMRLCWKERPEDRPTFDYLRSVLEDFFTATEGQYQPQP"}, "BTK (h)": {"biological_target": "BTK (h) (human (h), UniProt Q06187 1-659)", "sequence (Q06187 whole entry)": "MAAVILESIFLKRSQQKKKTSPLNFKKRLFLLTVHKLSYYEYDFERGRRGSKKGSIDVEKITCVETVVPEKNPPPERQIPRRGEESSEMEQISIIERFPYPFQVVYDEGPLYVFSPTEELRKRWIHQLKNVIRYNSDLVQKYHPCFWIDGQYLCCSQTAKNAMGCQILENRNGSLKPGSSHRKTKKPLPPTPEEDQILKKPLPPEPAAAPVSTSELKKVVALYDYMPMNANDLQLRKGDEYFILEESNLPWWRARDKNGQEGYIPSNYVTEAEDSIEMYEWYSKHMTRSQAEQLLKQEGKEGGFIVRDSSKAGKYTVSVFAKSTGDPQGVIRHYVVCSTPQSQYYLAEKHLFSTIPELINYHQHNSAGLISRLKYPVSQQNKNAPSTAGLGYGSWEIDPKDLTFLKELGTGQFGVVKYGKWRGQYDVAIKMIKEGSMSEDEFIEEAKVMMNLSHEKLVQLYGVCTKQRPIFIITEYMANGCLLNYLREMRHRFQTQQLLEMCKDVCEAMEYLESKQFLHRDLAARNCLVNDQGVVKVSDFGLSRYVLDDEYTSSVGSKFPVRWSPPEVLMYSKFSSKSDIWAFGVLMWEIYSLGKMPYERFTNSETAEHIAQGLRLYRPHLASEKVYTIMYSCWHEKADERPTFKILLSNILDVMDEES"}, "DYRK2 (h)": {"biological_target": "T2, DYRK2 (h) (human (h), UniProt Q92630 1-601, limits assumed)", "T2 sequence (looked up)": "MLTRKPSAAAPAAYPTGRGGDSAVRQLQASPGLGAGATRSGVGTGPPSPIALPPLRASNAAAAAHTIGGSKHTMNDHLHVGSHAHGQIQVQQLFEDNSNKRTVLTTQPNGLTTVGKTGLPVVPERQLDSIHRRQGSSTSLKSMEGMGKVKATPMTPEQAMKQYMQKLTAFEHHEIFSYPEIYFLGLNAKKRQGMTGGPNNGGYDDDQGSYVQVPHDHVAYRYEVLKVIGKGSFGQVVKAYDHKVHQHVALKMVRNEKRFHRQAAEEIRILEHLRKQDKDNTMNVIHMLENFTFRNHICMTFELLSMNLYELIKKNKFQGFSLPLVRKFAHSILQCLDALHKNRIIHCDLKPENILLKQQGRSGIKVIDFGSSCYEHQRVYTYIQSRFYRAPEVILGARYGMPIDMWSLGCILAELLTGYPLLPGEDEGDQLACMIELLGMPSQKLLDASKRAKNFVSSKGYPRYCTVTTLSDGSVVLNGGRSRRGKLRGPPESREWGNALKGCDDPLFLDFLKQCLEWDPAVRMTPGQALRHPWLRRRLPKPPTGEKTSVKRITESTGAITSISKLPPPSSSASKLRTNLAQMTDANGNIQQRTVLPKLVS"}, "EphA2 (h)": {"biological_target": "T3, EphA2 (h) (human (h), UniProt P29317 591-976, limits assumed)", "T3 sequence (looked up)": "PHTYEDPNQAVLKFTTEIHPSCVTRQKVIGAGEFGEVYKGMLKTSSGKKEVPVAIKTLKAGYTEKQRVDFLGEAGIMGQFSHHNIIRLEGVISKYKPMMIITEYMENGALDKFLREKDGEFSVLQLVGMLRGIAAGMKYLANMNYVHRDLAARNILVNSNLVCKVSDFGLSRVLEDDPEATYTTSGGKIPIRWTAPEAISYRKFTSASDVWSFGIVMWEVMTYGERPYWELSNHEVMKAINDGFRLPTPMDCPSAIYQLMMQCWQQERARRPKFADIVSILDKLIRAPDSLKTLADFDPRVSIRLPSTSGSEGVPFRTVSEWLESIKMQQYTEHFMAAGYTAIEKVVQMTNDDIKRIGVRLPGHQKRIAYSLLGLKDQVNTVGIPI"}, "JNK1α1 (h)": {"biological_target": "JNK1α1 (h) (human (h), UniProt P45983-2 1-384)", "sequence (P45983 other isoform, or with tags, fused parts or gaps limits assumed)": "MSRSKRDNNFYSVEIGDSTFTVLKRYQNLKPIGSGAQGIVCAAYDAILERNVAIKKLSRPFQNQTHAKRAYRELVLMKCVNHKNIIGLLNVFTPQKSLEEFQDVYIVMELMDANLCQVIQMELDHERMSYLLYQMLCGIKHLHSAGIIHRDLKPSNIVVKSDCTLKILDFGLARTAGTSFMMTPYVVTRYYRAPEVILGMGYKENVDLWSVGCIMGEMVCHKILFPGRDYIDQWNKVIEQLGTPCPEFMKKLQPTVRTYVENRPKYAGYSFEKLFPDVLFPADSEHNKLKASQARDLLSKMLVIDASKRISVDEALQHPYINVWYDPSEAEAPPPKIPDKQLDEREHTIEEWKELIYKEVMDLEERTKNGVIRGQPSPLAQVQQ"}, "Src(1-530) (h)": {"biological_target": "Src(1-530) (h) (human (h), UniProt P12931 1-530)"}, "SAPK2 a (h)": {"biological_target": "SAPK2 a (h) (human (h), UniProt Q16539 1-360)", "sequence (Q16539 whole entry)": "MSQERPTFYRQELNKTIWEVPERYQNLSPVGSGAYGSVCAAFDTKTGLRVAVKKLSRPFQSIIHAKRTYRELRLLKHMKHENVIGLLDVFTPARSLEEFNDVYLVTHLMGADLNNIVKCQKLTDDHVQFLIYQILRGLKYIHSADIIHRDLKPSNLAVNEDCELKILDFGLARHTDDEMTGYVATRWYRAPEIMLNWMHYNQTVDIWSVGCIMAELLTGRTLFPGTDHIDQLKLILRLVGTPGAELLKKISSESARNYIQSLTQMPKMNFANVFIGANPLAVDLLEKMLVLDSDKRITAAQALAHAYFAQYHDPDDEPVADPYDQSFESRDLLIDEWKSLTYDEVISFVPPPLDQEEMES"}, "PKA (h)": {"biological_target": "PKA (h) (human (h), UniProt P17612 1-351)"}, "AMPK (r)": {"biological_target": "AMPK (r) (rat (r), UniProt Q09137 1-552, limits assumed)", "sequence (Q09137 whole entry)": "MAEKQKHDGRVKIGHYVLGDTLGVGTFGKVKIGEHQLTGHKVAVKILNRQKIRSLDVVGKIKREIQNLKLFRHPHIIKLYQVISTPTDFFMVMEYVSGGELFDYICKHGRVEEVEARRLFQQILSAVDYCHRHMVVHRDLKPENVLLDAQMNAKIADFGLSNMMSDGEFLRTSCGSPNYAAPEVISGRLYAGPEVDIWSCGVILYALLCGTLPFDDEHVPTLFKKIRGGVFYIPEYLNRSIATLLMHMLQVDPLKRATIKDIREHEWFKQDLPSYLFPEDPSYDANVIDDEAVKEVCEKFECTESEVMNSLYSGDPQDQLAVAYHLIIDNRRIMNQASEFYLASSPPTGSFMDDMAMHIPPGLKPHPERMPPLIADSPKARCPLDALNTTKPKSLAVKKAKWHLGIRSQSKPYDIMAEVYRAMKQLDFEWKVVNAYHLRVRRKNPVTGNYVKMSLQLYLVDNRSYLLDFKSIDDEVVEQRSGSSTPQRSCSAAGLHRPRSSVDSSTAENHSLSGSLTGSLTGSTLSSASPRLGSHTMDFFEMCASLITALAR"}, "Flt3 (h)": {"biological_target": "T4, Flt3 (h) (human (h), UniProt P36888 564-993, limits assumed)", "T4 sequence (looked up)": "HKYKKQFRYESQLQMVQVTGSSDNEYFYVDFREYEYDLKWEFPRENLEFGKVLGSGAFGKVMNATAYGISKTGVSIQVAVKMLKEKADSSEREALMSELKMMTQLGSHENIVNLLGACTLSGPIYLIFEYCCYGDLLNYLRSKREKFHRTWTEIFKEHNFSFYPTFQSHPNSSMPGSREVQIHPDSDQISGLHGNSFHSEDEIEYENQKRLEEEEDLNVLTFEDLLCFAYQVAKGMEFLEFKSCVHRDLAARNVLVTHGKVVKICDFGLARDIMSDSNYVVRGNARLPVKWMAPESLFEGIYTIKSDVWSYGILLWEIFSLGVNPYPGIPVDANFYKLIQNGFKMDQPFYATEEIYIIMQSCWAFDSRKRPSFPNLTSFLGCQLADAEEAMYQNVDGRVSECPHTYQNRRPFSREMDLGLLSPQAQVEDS"}, "TrkA (h)": {"biological_target": "TrkA (h) (human (h), UniProt P04629 441-796, limits assumed)", "sequence (P04629 441-796 limits assumed)": "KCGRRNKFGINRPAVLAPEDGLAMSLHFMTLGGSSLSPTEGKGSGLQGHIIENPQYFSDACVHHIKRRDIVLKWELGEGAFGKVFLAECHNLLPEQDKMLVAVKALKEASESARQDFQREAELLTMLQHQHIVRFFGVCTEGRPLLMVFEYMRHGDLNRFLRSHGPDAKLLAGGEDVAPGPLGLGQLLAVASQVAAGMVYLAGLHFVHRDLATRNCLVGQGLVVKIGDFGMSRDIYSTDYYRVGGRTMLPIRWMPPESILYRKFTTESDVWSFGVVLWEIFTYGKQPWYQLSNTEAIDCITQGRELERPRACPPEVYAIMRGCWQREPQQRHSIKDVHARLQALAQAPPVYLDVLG"}, "Syk (h)": {"biological_target": "Syk (h) (human (h), UniProt P43405 1-635)"}, "JAK3 (h)": {"biological_target": "JAK3 (h) (human (h), UniProt P52333 781-1124, limits assumed)", "sequence (P52333 781-1124 limits assumed)": "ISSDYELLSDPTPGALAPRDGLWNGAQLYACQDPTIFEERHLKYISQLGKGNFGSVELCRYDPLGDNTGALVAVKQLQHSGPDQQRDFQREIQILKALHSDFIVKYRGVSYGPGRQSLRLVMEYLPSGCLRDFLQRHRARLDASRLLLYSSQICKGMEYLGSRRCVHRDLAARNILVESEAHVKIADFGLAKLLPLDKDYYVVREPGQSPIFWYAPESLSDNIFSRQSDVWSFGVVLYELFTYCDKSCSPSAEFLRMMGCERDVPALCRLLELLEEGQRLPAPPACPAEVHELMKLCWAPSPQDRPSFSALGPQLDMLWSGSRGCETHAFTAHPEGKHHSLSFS"}},
  "data": [
    {"binder": "FAKLAARLYRKALARQLGVAA", "values": [
      {"measurement": "Profile-1 @ = 100 µm (kinase profiler assay)", "setting": "Ret (h)", "value": 89},
      {"measurement": "Profile-1 @ = 100 µm (kinase profiler assay)", "setting": "MSK2 (h)", "value": 24},
      {"measurement": "Profile-1 @ = 100 µm (kinase profiler assay)", "setting": "L1MK1 (h)", "value": 92},
      {"measurement": "Profile-1 @ = 100 µm (kinase profiler assay)", "setting": "Lck (h)", "value": 493},
      {"measurement": "Profile-1 @ = 100 µm (kinase profiler assay)", "setting": "BTK (h)", "value": 19},
      {"measurement": "Profile-1 @ = 100 µm (kinase profiler assay)", "setting": "DYRK2 (h)", "value": -11},
      {"measurement": "Profile-1 @ = 100 µm (kinase profiler assay)", "setting": "EphA2 (h)", "value": 32},
      {"measurement": "Profile-1 @ = 100 µm (kinase profiler assay)", "setting": "JNK1α1 (h)", "value": 91},
      {"measurement": "Profile-1 @ = 100 µm (kinase profiler assay)", "setting": "Src(1-530) (h)", "value": 5},
      {"measurement": "Profile-1 @ = 100 µm (kinase profiler assay)", "setting": "SAPK2 a (h)", "value": 30},
      {"measurement": "Profile-1 @ = 100 µm (kinase profiler assay)", "setting": "PKA (h)", "value": 76},
      {"measurement": "Profile-1 @ = 100 µm (kinase profiler assay)", "setting": "AMPK (r)", "value": 101},
      {"measurement": "Profile-1 @ = 100 µm (kinase profiler assay)", "setting": "Flt3 (h)", "value": 14},
      {"measurement": "Profile-1 @ = 100 µm (kinase profiler assay)", "setting": "TrkA (h)", "value": 17},
      {"measurement": "Profile-1 @ = 100 µm (kinase profiler assay)", "setting": "Syk (h)", "value": 38},
      {"measurement": "Profile-1 @ = 100 µm (kinase profiler assay)", "setting": "JAK3 (h)", "value": 102}
    ]}
  ]
}
